Data from the nanobody polyreactivity screen of Harvey et al. (2022).

assay: yeast display, Sf9 membrane polyspecificity reagent, FACS + sequencing; frameworks hold sequencing errors
Summary of the method: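 A nanobody's polyreactivity label depends on the gate it was sorted from. Yeast display cells were stained with 10% biotinylated, detergent-solubilized Sf9 membrane reagent for 1 hour at 4 °C, enriched on streptavidin microbeads and sorted by FACS. The low and high (top ~1%) gates were set on anti-HA fluorescence for expression and streptavidin fluorescence for reagent binding.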

Sequence	polyreactivity (PSR sort gate)
QVQLVESGGGLVQAGGSLRLSCADSGRIFVAYAMGWYRQAPGKERELFADITWSGDITYYADSVKGRFTISRDNAKNTVYLQMNSLKPEDTAVYYCAADYHRRRTDYDYWGQVTQVTVSS	low polyreactivity
QVQLVESGGGLVQAGGSLRLSCAASGSIFAKNAMGWYRQAPGKERELVAAITFIGGDTYYADSVKGRFTISRDNAKNTVYLQMNSLKPEDTAVFYCNRALLVTSIYPYLFGSGWYDYWGQGTQVTVSS	low polyreactivity
QVQLLESGGGLVKAGGSLRVSCAASGLTFNYYAMGWYRHAPGKDRELCAAISRRGGYTYYADSVKGRFTISRDNAKNTVYVQKNSQKPEDTAVYDCAADNYEHNYYGYYYWGQGNQVTVSS	high polyreactivity
QVQLVESGGGLVQAGGSLRLSCAASGRIFTRYAMGWNRQAPGKETELGAAITASGGRTYYADSVKGRFTISRDNAKNTVYLQMNSLKPEDTAVYYCAATYHRYYETQDSYDYWGQGTQLTVSS	high polyreactivity
QVQLVESGGGLVQAGGSLRLSCAASGSIFARYAMGWDRQAPGKERELVAAISSRGGSTYYADSVKGRFTISRDNAKNTVYLQMNSLKPADTAVYYCNKGYLVRQGDYWGQGTQVTVSS	high polyreactivity
QVQLVESGGGLVQAGGSLRLSCAASGSTLWAYAMGWYRQAPGKERELVASISSGGNTNYADSVKGRFTISRDNAKNTVYLQMNSLKPEDTAVYYCAAVGYLYFWYPYDYWGQGTQLTVSS	low polyreactivity
QVQLVESGGGLVQAGGSLRLSCAASGRIFDYNTMGWYRQAPGKERELVAAITGGTGSTYYADSVKGRFTISRDNAKNTVYLHMNSLKPEDTAVYYCAAGFHKRVTPEILYDFWGQGTQVTVSS	low polyreactivity
QVQLVESGGGLVQAGGSLRLSCAASGLIFPLYDMGWYIQAPGKDRELVAAITWGGGGTYYADSVKGRFTISRDNAKNTVYLQMNSLKPEDTAVYYCNADSDIAAPLRTYITFDYWGQGTQVTVSS	low polyreactivity
QVQLVESGGGLVQAGGSLRLSCAASGRNFSWNAMGWYRQAPGKERELVAAISRGASTNYADSVKGRFTISRDNAKNTDYLQMNSLKPEDTAVYYCNAVGPSLIYTYELSPTFDYWGQGTQVTVSS	low polyreactivity
QVHLVESGGGLVQAGGSLRLSCAASGRIFGPYTMGWYIQAPGKEREFVAAITRRGGSTYYADSVKGRFTISRDNAKNTVYLQMNSLKPEDTAVYSCAAGGQKRSLGYSWGQGTQVTVSS	low polyreactivity
QVQLVESGGGLVQAGGTLRLSCAASGRTFAYNAMGWYRQAPGKERELVAAITWSGDSTYYADSVKGRFTISRDNAKKTVYLQRNSLKPEDTAVYYCAADYFGGPSYEFDYWGQGTQVTVSS	low polyreactivity
QVQLVESGGGLVQAGGSLRLSCAASGLTFAFNAMGWYRPAPGKERELVAAISKSGGSTYYADSVKGRFTISRDNAKNTVYLQMNSLKPEDTAVYYCAAGFWYYSYPTLYEYGYWGQGTQVTVSS	low polyreactivity
QVQLVESGGCLVQAGGRLRLSCAASGFIFHGYAMGWYRPAPGKERELVAAISSRGGTTYYADSVQGRFTISRDKAKTTVYLQMNSLKPEDSAVDDCAADKIRYITSPVPFYYWGQGTQVTVSS	high polyreactivity
QVQLVESGVGLVQAGGSLRLSCAASGSTLVSYAKGWYIQAPGKERELVASISSGDSTYADSVKGRFTISRDNAKNTVYLQMNSLKPEDTAVYYCNVGNEGSYGFPVTYEYWGQGTQVTVSS	low polyreactivity
QVQLVESGGGLVQAGGSLRLICAASGRTFSVYAMGWYRQAPGKERELVAAISWNGGNTYYADSVKGRFTISRDNAKNTVYLQMNSLKPEDTAVYYCAAERFLARRYYYWGQGTQVTVSS	low polyreactivity
QVQLVESGGGLVQAGGSLRLRCAASGRTFSSYDKAWYRPAPGKERELVAAITKSGGSTYYADSVKGRFTLSRDKAKNTVYLQMNSLKPDDTAVYYCGYQYYYWGQGTQVTVSS	high polyreactivity
QVQLVESGGGLVQAGGSLRLSCAASGITFYYYAMGWYRQAPGKLRELVARINSGGSTNYADSVKGRFTISRDNAKNTVYLQMNSLKPEDTAVYYCNAKFRFGTYKTPYDYWGQGTQVTVSS	low polyreactivity
QVQLVESGGGLVQAGGSLRLSCAASGRTFSGNTMGWYRQAPGKEREFVATISQSGTITSYADSVKGRFTISRDNAKNTVYLQMNSLKPEDTAVYYCAARAVYYSSRGWITRFDYWGQGTQVTVSS	high polyreactivity
QVQLVESGGGLVQAGGSLRLSCAASGSTFTDYAMGWYRQAPGKERELVAAIDSGGITNYADSVKGRFTISRDNAKNTVYLQMNSLKPEDTAVYYCNADSSKFYSHGEYEYWGQGTQVTVSS	low polyreactivity
QVQLVESGGGLVQAGGSLRLSCAASGRTINRYAMGWYRQAPGKESELVASINKSGTSTYYADAVKGRFTISRDNAKNTVYLQMNCLKPEDTGVYYWKTRYFWCSTYDYWGQGTEVTVSS	high polyreactivity
QVQLVESAGGLVQAGGSLRLRCAASGRIFTHNAMGWYRQAPGKERELVAAITSGGRTTYADSVKGRFTISRDNAKNTVYLQMNSLKPEDSAVYYCNADTGLGSLDFDKRDYWGQGTQVTVSS	low polyreactivity

Sequence	polyreactivity (PSR sort gate)
QVQLVESGGGLVHAVGSHRLSCTASGSTFVAYPMGWYRQAPGKERELVAAITSSGGRTYYADSVKGRFTISRDNSKNTVYLQINSLKPEDTAVYYCAAVTHGRYDWGQGTQVTVSS	high polyreactivity
QVQLVESGGGLVQAGGSLRLSCAASGFTFTPYGMGWYRQAPGKERALVAAITWNGGRTYYADSVKGRFTISRDNAKNTVYLQMNSLKPEDTAVDYCAAVAWSWQKRGYWGQGTQVTVSS	high polyreactivity
QVQLVESGGGLVQAGGSLRLSCSASGFTIYYYTMGWYRQAPGKERELVAAITRSGGRTYYADSVKGRFTISRDNSKNTVYLQMISLKPEDPAVYYCAASTYNNFWYLGYGYWGQGTQVTVSS	high polyreactivity
QVQLVESGGGLVQAGGSLRLSCAASGRILGDYAMGWYRQAPGKEREFVAAIDYNGGSTNYADSVKGRFTISRDNAKNTVYLQMNSLKPEDTAVYYCAAPGFPSRNGFGYWGQGTQVTVSS	low polyreactivity
HVQLVESGGVLVQAGGSLRLSCAATGSIFRNNAMGWYRQAPGKERDLVAAISSSGGSTFYADSVKGRFTISRDNAKNTVYLQMNSQNPEDTAVYYCAARVRSELIKRYDWGQGTQVTVSS	high polyreactivity
QVQLVESGGGLVQAGGSLRLSCAASGRIFSSYAMGWYRQAPGKERELVAAISSRGGSTYYADSVKGRFTISRDNAKNTVYLQMNSLKPEDTAVYYCARVKYSGVVYKYDYWGQGTQVTVSS	high polyreactivity
QGQLVESGGGLVQAGGSLRLSCAASGSTFDNYAMGWYRQAPGKERELVAAISSSSSRTYYADSVKGRFTISRDNAKNTVYLQMNSLKPADTAVYYCAKRRSIGYYYWGQGTQVTVSS	high polyreactivity
QVQLVESGGGLVQAGGSLRLSCDASGSIFPLYAMGWYRQAPGKERELVAAITSGTSTNYADSVKGRFTISRDNAKNTVYLQMNSLKPEDTAVYYCAADVYTRFWRVYRFDYWGQGTQVTVSS	low polyreactivity
QVQLVESGGGLVQAGGSLRLSCAASGSIFYAYAMGWYRQAPGKERELVAAIRSSDSRTYYADSVKGRFTISRDNAKNTVYLQMNSLKPEDTAVYYCAADGSRKVKFDYWGQGTQVTVSS	high polyreactivity
QVQLVESGGGLVQAGGSLRLSCAASGRIFRDYVMGWYRQAPGKERELVAAITQRGGSTYYADSVKGRFTISRDNAKNTVYLQLNSLKPEDTAVYYCNARWYRYGTGGVGYGGYDYWGQGTQVTVSS	low polyreactivity
QVQLVESGGGLVQAGGSHRLSCAASGSTVGRNAMGWYGQAPGKERELVAAITASGGTTYYADSVKGRFTISRDNAKNTVYLQMNSLKPEDTAVYYCARAGHFSFKYDYWGQGTQVTVSS	low polyreactivity
QVQLVESGGGLVQAGGSLRVSCAASGRILSRNAMGWYRQAPGKERELVAAISISGGSTYYADSVKGRFTISRDNAKNTVYLQMNSLKPEDTAVYYCNTAYYGSRKYDYWGQGTQVTVSS	high polyreactivity
QVQLVESGGGLVQAGGSLRLSCAASGRIFERYAMGWYRQAPGKERELVAAISVSGSGTYYADSVKGRFTISRDNAKNTVYLQMNSLKPEDTAVYYCAADASLLGLFQGYDYWGQGTQVTVSS	low polyreactivity
QVQLVESGGGLVQAGGSLRLSCAASGSNLVWNAMGWYRQAPGKERELVAAIDRDTTTYYADSVKGRFTISRDNAKNTVYLQMNSLKPEDTAVYYCAAESWYYLYDYWGQGTQVTVSS	high polyreactivity
QVQLVESGGGLVQAGGSHRLSCAASGRTFLTNAMGWYRQAPGKERELVAAIRWSGTSTYYADSVKGRFTISRDNAKNTVYLQMNSLKPEDTAVYYCAARKVYGSKYGYWGQGTQVTVSS	high polyreactivity
QVQLVESGGGLVQAGGSLRLSCAASGFTLLPNAMGWYRQAPGKERELVAAITASGGRTYYADSVKGRFTISRDNAKNTVYLQMNSLKPEDSAVYYCNAGVYYYYHYTRMDYWGQGTQVTVSS	low polyreactivity
QVQLVESGGGLVQAGGSLRLSCAASGRTFNQYAMGWYRQAPGKERELVAAISRRTGRTYYADSVKGRFTISRDNAKNTVYLQMNSLKQEDTAVYYCAAGFTYLNYTPWYRFNYWGQGTQVTVSS	high polyreactivity
QVQLVESGGGLVQAGGSLRLSCAASGFIFSAYAMGWYRQAPGKERELVAAITKRGGTTYYADSVKGRFTISRDNAKNTVYLQMNSLKPEDTAVYYCATRQLSKVKDMDYWGQGTQVTVSS	high polyreactivity
QVQLVESGGGLVQAGGRLRLSCASSGITFTFNAMGRYTQAPGKEMELVAAITWSGGSTFYADSVKGRFTISRDNAKNSVYLQMNSLIPEDTAVYYCARDTELYVRWLDYWGQGTQVTVSS	low polyreactivity
QVQLVESGGGLVQAGGSLRLSCAASGRIFKYYARGWYRQAPGKERELVAAISGSGGTHYADSVKGRFTISRDNAKNTVYLQMNSLKPEDTAVYYCAVRWRGNGQGGSWGQGTQVTVSS	high polyreactivity
